System: K4 kissing-loop RNA reporter
Test: apparent KD of K4 kissing-loop reporter; higher = weaker reporter binding
Conditions: Eterna round: R107
Procedure: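 RNA-MaP round R107: designed RNA switches with theophylline, tryptophan, arginine or FMN aptamers are transcribed on-chip within common flanks. They are titrated with a labelled K4 kissing-loop RNA reporter in RNA-MaP buffer (100 mM Tris pH 7.5, 80 mM KCl, 4 mM MgCl2), without ligand or with the indicated ligand. Median apparent KD per design.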

[1] = input ligand: theophylline 20 uM
[2] = input ligand: tryptophan 2.4 mM
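Also: bound reporter read as fluorescence of individual clusters on recovered sequencing chips by microscopy, with normalized cluster intensities fitted with a binding model.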

| Sequence | apparent KD of K4 kissing-loop reporter (input ligand: FMN 200 uM) [nM] | apparent KD of K4 kissing-loop reporter (input ligand: arginine 13.2 mM) [nM] | apparent KD of K4 kissing-loop reporter (input ligand: none) [nM] | apparent KD of K4 kissing-loop reporter [1] [nM] | apparent KD of K4 kissing-loop reporter [2] [nM] |
| --- | --- | --- | --- | --- | --- |
| GUUGUAUACUGAAGGAGCGAGUAGUGGAAACAUAAACUCAUUGCGAGUGAUGUUCGCGGUACUCAGGUAGGUCGCGGUAAUCGUA [Exclusion Arginine B Gf 11] | 820 | 328 | 800 | 485 | 403 |
| UAAAAUAAAUAAUAGAGAGCGUUACUCGAAGGAGCGACGAAUUCGUCAGGUAGGUCGCGAGUGAUGUUCGCAAAUACGCUCUCAU [AK2 Exc Arginine A] | 838 | 655 | 850 | 696 | 682 |
| UAAAUAAUAAAACGAGUGAUGUUCGACGAUACCAGCCUCGAUAGAGGCCCUUGGCAGCGUAAAUGAUCACAAAGCCAAGGUAUAA [#01 K4 Theophylline A Exclusion] | 165 | 183 | 159 | 199 | 138 |
| UAAAUUAUCUGAAGGAGCGUGAAAUAAUAUUAAACAUAACAACCCAGUGAUGUUGGGUUAUCACAGGUAGGUCGCAGAUGUAGAU [Same State Arginie B GF 24] | 95.6 | 113 | 98 | 118 | 85.5 |
| UAAGAGGACCACUGCAAAAGUCCUCGAAUACGAGGACCGGUACGGCCGCCACUCGAUAAUUUGCAGUGAUGUUGCAAGUAAGAAU [BrourdMod 4 - Jieux - Same State Tryptophan A] | 120 | 158 | 130 | 201 | 71.2 |
| UAAUAAAUUCCAGCUAUAUCACUCUUCGAAGGAGCGGACGAAAGUCCAGGUAGGUCGCGAAGAGUGAUGUUCUUUGCGGCGCUGG [Omei KL Arginine A Exc A v5] | 94.1 | 60.8 | 75.4 | 132 | 111 |
| UAAUAAAUUCUGGCAAUGUCACUCUUCGAAGGAGCGGACGAAAGUCCAGGUAGGUCGCGAAGAGUGAUGUUCUUCGCGGCGCCAG [Omei KL Arginine A Exc A v1] | 299 | 235 | 235 | 304 | 268 |
| UAAUGUGGCACAGGAUAUACUGAUUGGAGUGAUGUUCCAAACAUGGACGUGAGACUUUUACAAGAAGUAGAAGGGUGUUAGAUAU [Exclusion FMN B GF 20] | 241 | 298 | 304 | 448 | 306 |
| UAAUUUAUGUCUUUAAUAUAAUAAUCAGAUACCAGUGAUUUAUGACACCCUUGGCAGCUGUAUAGAGUGAUGUUCUUAUACAUAA [JR_Nu_ExcTheophyA_Sub020] | 388 | 504 | 483 | 547 | 294 |
| UAAUUUAUGUCUUUAAUAUAAUUUUCAGAUACCAGUGAUUAUUAACACCCUUGGCAGCUGUGUAGAGUGAUGUUCUCAUGCUUAA [#07 K4 Theophylline A Exclusion] | 307 | 354 | 365 | 373 | 229 |
| UACACGACUCGUGUAAACCGAGGUAACAGGCAGGAUAUGUAACGGAACAGAAGGGCCAUGUAGCGUGUCCAGUGAUGUUGGAUGC [Betilare] | 199 | 166 | 186 | 180 | 173 |
| UACAUAUUAUUAUUUCUACAUUUAUUUAGUCAGGAUAUCGAUUAAACGAGAAGGGACAAUAUCAAGUGAUGUUUGAUAAUUCAAA [JR_SSFMNA_Sub022] | 85.3 | 123 | 81.6 | 118 | 60 |
| UACUAUAGUGAUGUUAUAGAUAAAACAGAUACCAGUGUAACAUAACACCCUUGGCAGCUGAUAAGGGAAAGUAUAAAUGUGUAUU [AstrosSSTHe-A#2newdesignED] | 207 | 188 | 199 | 208 | 186 |
| UACUAUAGUGAUGUUAUAGAUAAACCAGAUACCAGUGUAACAUAACACCCUUGGCAGCUGAUAAGGGAAAGUAUAAAUGUGUAUU [AstrosSSTHe-A#3newdesignED] | 230 | 198 | 228 | 219 | 205 |
| UACUAUAGUGAUGUUAUAGAUAAACCAGAUACCAGUGUAACAUAACACCCUUGGCAGCUGAUGAGGGAAGUUAUCAAAAGAUAAC [AstroSTH-A#10designED4.80] | 227 | 190 | 142 | 115 | 198 |
| UAGCGGUAGAGGCCACCGCUAUUCUGAGAAGGAGCGCAGAUGACUGCAGGUAGGUCGCUUAGAGCUUGCAGUGAUGUUGCAAGUU [Tebete] | 171 | 175 | 179 | 145 | 131 |
| UAGUCCGGGUGAUGGUCAUCACGUGGCGGGCGAGGACCGGUACGGCCGCCACUCGACUUUGCAGUGAUGUUGCAAACCGGACAAU [Exclusion - Tryptophan A (Freestyle 22)] | 221 | 192 | 201 | 225 | 259 |
| UAUAUAGUGACGGCCGCCACUAUUGUGAUUUAAUUGUUAGAGUGAUGUUUUGUUGUUUGAUUUUGUAGGACCGGGUUAUAUGUUA [vnbbwzmullin] | 1090 | 851 | 982 | 794 | 839 |
| UAUAUAUGAUGUGAUACCAGUGAAAAGCCAGUGAUGUUGGAGGAGCUGGUAUAUAAAUAAGACCCUUGGCAGCACAAUCACGUAU [#01 K4 Theophylline B Exclusion] | 227 | 202 | 212 | 221 | 214 |
| UAUUUAAAUAAAAUAAAAUAAAUUGCUGAUACCAGAGCCAAUUGGCUCCCUUGGCAGCGGAUCGAGUGAUGUUCGUAAAAUUUAU [AK2 SS Theophylline A] | 28.5 | 65.4 | 29.6 | 61.5 | 30.3 |
| UAUUUAGUGACGGCCGCCACUAUUGUGAUUUAUUUGUUUGAGUGAUGUUUUGAUGUUUGAUUUUGUAGGACCGGGUUAUGUGUUA [awscmullin] | 1080 | 733 | 938 | 804 | 708 |

| Sequence | apparent KD of K4 kissing-loop reporter (input ligand: FMN 200 uM) [nM] | apparent KD of K4 kissing-loop reporter (input ligand: arginine 13.2 mM) [nM] | apparent KD of K4 kissing-loop reporter (input ligand: none) [nM] | apparent KD of K4 kissing-loop reporter [1] [nM] | apparent KD of K4 kissing-loop reporter [2] [nM] |
| --- | --- | --- | --- | --- | --- |
| UCCAGGAAUCAUGUCGUAGUGAUGUUAUGACGAGGACCGGUACGGCCGCCACUCGUCGUGGCCGGUUCUGAGGGCUAAUCUCUCA [theeternabot_exclusion_KL_Trp_A_34] | 247 | 214 | 273 | 227 | 632 |
| UCCCUAAAGGGAGAUACCAGUAAAGAAGUGACGGAGUGGAGUGAUGUUCCAUAUUACUGAUACCCUUGGCAGCUCUUUUGAUUAC [theeternabot_sameState_KL_Theo_B_47] | 108 | 155 | 113 | 187 | 93.2 |
| UCCUAGGCUCGAAAGAGCCUAGGAUUAUCUCAGGAUAUCCGGAAACGGAGAAGGGAGAAACUAGUGAUGUUAGGGAUUCCCUCUU | 421 | 110 | 145 | 135 | 126 |
| UCCUGCAAUCGACCACGAAAGUGGAUGGAUACCAGAGUCGAAAGACUCCCUUGGCAGCCAGUGAUGUUGGAAGCAGGUAAAUAAA [#SwitchBubble 17 #K4Late] | 364 | 359 | 445 | 288 | 406 |
| UCCUGCAAUCUGCCACGAAAGUGGGUUGAUACCAGAGUCGAAAGACUCCCUUGGCAGCGAGUGAUGUUCGUUGCAGGUAAAUAAA [MatMod 8 - Jieux - Exclusion - Theophylline A] | 194 | 163 | 200 | 180 | 168 |
| UCCUGCACGGUCGAUACCAGCCUAUGCAGUGAUGUUGUAAGGUUGUCACUUUAGUACGAAGGCCCUUGGCAGCGAUGAUGUAACA [theeternabot_exclusion_KL_Theo_B_41] | 601 | 470 | 604 | 504 | 464 |
| UCGAUAGCCAGCGAUACCAGCCCAGUGAUGUUGGGCACAUGGUUGCGGGAAAUCCUAUUGGGCCCUUGGCAGCGCUUGCAUGGGU [Anbixeza] | 127 | 118 | 119 | 107 | 110 |
| UCGGAGGGAGCGGCCGCCACUGUAUUACCUCGACGAACGCCGGUUUUCAUGAAGUGAUGUUUCGCCAGGACCGGGCUAAUCUGAG [theeternabot_exclusion_KL_Trp_B_46] | 244 | 202 | 235 | 217 | 206 |
| UCGGCAAAGUCGGCCGCCACUCCGGGCCCUAUAAAUGGGCGCAGUGAUGUUGCGGCUAGGCCUCUGAGGACCGGGACUUUGUAAA [Atordied] | 185 | 63.1 | 54.5 | 61.7 | 219 |
| UCUGUUGUAUAUGAUACCAGCAGUGAGAGAUGAGAAGUAUAGUGAUGUUAUAUGAGUGAAUGCCCUUGGCAGCGUGUGCGUGUGG [SSTheophylB.aD] | 101 | 112 | 94 | 134 | 87.5 |
| UGAACCCGGUCGGCCGCCACUCUGAGAACCAUCGCCCUACGUGCAGUGAUGUUGUACCUAAUGAGGAGGACCGGGACUGGGCGGC [theeternabot_sameState_KL_Trp_B_36] | 316 | 277 | 360 | 204 | 223 |
| UGAACUGUCUGCGAUACCAGCUAAGGAGUGAUGUUCCGGCUCGACGAAACGUCGAGCCAUAGCCCUUGGCAGCGCAGACAGUUCA [#28 K4 Theophylline B Same State] | 387 | 160 | 334 | 721 | 272 |
| UGACAUUGCUCAGAUACCAGACCUGAGGAUCACCCGGGUGCCAAAACGUACUAAAUAAAGGUCCCUUGGCAGCUGAGCAAUGUCU [TheoBX 13] | 56.9 | 43.7 | 65.5 | 49.5 | 89.5 |
| UGACUACAAAAGGAAUAAUCCUAGUGAUGUUAGGAUAUGCUGAUAAGCAGAAGGAACGGAGAUCGAAAGAUCUCAAAUGUAGUCU [whbob_Ex_FMNA__2th191] | 153 | 89.8 | 82.9 | 112 | 86 |
| UGACUGGACUGAAGGAGCGCGCGAGACAAAGUCUCGAACUCCUAGUGAUGUUAGGAAAUAACGCAGGUAGGUCGCAGUCUAGUCU [ArgBS 10 #SwitchBubble #StaticStem #DoubleMagnet] | 225 | 190 | 243 | 209 | 241 |
| UGACUGGACUGAAGGAGCGCGCGAGACAAAGUCUCGAACUCUUAGUGAUGUUAGGAAAUAACGCAGGUAGGUCGCAGUCUAGUCU | 381 | 247 | 332 | 473 | 408 |
| UGACUGGACUGAAGGAGCGCUAAAACUCCUAGUGAUGUUGGGAAAACGAGACAAAGUCUCGAGCAGGUAGGUCGCAGUCUAGUCU [ArgBS 22 #SwitchBubble #StaticStem] | 302 | 196 | 253 | 278 | 258 |
| UGACUGGACUGAAGGAGCGCUAAACUCCUAGUGAUGUUAGGAUAACGAGACAAAGUCUCGAGGCAGGUAGGUCGCAGUCUAGUCU | 128 | 134 | 131 | 137 | 128 |
| UGACUUGCCUGAGGAUAUCUAGGAUAUGGAUAAAAUAAAAUAAUAAUGGAGUGAUGUUCCAGAAGGAGAGAAGGCAGGUAAGUCU [KL-XFMN-B16 #DoubleAptamer #SwitchBubble] | 190 | 116 | 96.1 | 170 | 84 |
| UGAUACCAGACGGCCGCCACUCCCGUAAGUCAAAGACUUACCAAGAGUAUCGUCCAGUGAUGUUGGAGGACCGGGUCUGGUAUCU [FiskerMod 9 - Jieux - Exclusion - Tryptophan B] | 376 | 321 | 330 | 320 | 829 |
| UGAUACCAGACGGCCGCCACUCUUGCAGUCAAAGACUGCUAAAAGGAAAUCGUCCAGUGAUGUUGGAGGACCGGGUCUGGUAUCU [TrypBX 15 #SwitchBubble #Palindromic #StaticStem] | 1420 | 774 | 1370 | 774 | 736 |

— the supplement of paper PMC9170038
